# According to the supplement of paper PMC12042874:
# ± gives the uncertainty stated by the source.
# Assay: amyloid nucleation score (Sup35N fusion, yeast selection) (log enrichment); library NNK1; higher = more nucleation; inactive = no reads after selection
# Method in brief: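 Output and input plasmid inserts were sequenced by Illumina after psi-negative yeast carrying Sup35N fused to peptides of 20 random codons had been induced 24 hours with 100 μM copper sulfate and grown 7 days at 30°C on medium lacking adenine and uracil. The nucleation score is the DiMSum log enrichment of output over input reads, centred on the mode score of non-aggregating sequences. Sequences with under 100 input reads were excluded.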
row,Substance,amyloid nucleation score
1,WFAVWRIRCVRSDVANWMLS,0.283 ± 0.37
2,WFFGRYHGTGQNMFRG,2.15 ± 0.18
3,WFFHLTNLSFCCNPLVVPRV,-0.004 ± 0.78
4,WFQVASRVGLKKVYWVGHLE,inactive
5,WFSVMLRYEY,1.71 ± 0.2
6,WFTPNVWAGGVWHHVLGFGG,-0.93 ± 0.65
7,WFYDAAFTMKVTVAIFVFFR,0.675 ± 0.71
8,WGRRLSR,0.122 ± 0.5
9,WGSASRLKVTLRRVRYTTTG,0.813 ± 0.71
10,WGVFDTETIVWFVYIGTL,-0.026 ± 0.32
11,WGYRHSYSVGPRW,inactive
12,WHDKVKDFRIRAGHLSYSRG,0.486 ± 0.63
13,WHILPQVWGIVHMIRSNLVC,0.99 ± 0.64
14,WHKLRPFEGAIKMFSAWISL,inactive
15,WHKMMQLSLCSEYELLFNLQ,0.51 ± 0.9
16,WHPAKMILEYAEVRSNL,-0.032 ± 0.39
17,WIEEIVCIGS,1.03 ± 0.68
18,WIRHSNNICMM,1.26 ± 0.18
19,WISFPLV,0.046 ± 0.48
20,WISHSVSLFVSVLGMWMSRD,-2.09 ± 2.4
21,WISYVQNTIYRFAFEESCLG,1.31 ± 0.43
22,WKCWGLCHLQR,-1 ± 0.93
23,WKVKLNGIG,0.341 ± 0.28
24,WKYVTLELIWWTTLVTAWGT,1.02 ± 0.8
25,WLDHEISSELAGYPLWLSAN,2.19 ± 0.17
26,WLDRGW,0.282 ± 0.33

row,Substance,amyloid nucleation score
1,WLESRQPAEESVVVWNERVG,-0.831 ± 1.3
2,WLGMRMVGNVVERLYSVRCQ,-0.111 ± 0.7
3,WLHGFKWRED,-0.541 ± 0.68
4,WLISFGDFDGSMFKMMSNTK,2.67 ± 0.13
5,WLIVIGMGRLGIVIMLGGLK,0.723 ± 0.44
6,WLLVQLYYVCYFGLRLEFSM,-0.237 ± 0.18
7,WLNHKRIVINTQLMLYSPGC,4.68 ± 0.11
8,WLVGKTCNLYDLVLASLSNG,-0.704 ± 0.4
9,WLWPPLACDHMPIAVSETDA,-0.775 ± 0.99
10,WMDNTSHRFESCEV,0.635 ± 0.55
11,WMLVRAACLGIKRKNG,0.759 ± 0.51
12,WMYRLYSISLITSDCS,0.514 ± 0.33
13,WMYTMTGFEVNRTVNFYWTI,-0.095 ± 0.29
14,WNDWSYHCNF,-0.11 ± 0.27
15,WNLATMVADRSPRNKLWTRP,0.397 ± 0.97
16,WNMLPSIPGDRGWLDGVPVV,-0.45 ± 0.39
17,WNNVSCIELSSVSWNPDEVG,-0.302 ± 0.3
18,WNPYPTCSYSPFATSGDSAF,-1.13 ± 0.76
19,WPGLFMIY,0.016 ± 0.49
20,WPGMPRS,1.17 ± 0.35
21,WPWCQYTYRFLSIMCKVFL,0.288 ± 0.65
22,WRFLLWSFHSEAYLIVYS,-0.773 ± 0.49
23,WRNYYHWVTFRSDRLDRWFG,1.85 ± 0.12
24,WRRRDRVLQCWL,inactive
25,WRSSWWWRCCYYSSSSMSRW,1.12 ± 0.6
26,WRTARFSGKF,-0.048 ± 0.4

row,Substance,amyloid nucleation score
1,WRVYQSFGDLAVCTF,0.326 ± 0.45
2,WRYRRCSYY,0.781 ± 0.47
3,WRYRSRCMGGVVDRLLCDVW,3.33 ± 0.076
4,WSHSILCIQSRSRIYPTHWL,0.495 ± 0.29
5,WSIDVNTTACKFFFRCSSCN,1.43 ± 0.74
6,WSIEWFYSMSYARIDME,-1.23 ± 0.79
7,WSINMCCMRSRLWNFDGRKE,4.04 ± 0.074
8,WSMLSADSRISYYIYQCSLF,2.31 ± 0.32
9,WSSHYVSLRKVCVCGRRPWS,3.46 ± 0.079
10,WSVDIGLRGLIMRMKYCEFR,-1.01 ± 0.54
11,WSWRRVVAWLH,0.727 ± 0.34
12,WSYGSEPM,inactive
13,WTAHSSL,1.09 ± 0.76
14,WTFTVVFFLKVSSL,0.81 ± 0.78
15,WTWILPMVRTIIYQY,-0.356 ± 0.27
16,WVIVASP,-1.42 ± 0.85
17,WVLPEAHVYGRWVT,1.06 ± 0.52
18,WVSNL,0.296 ± 0.44
19,WVTHRL,-0.715 ± 1.2
20,WWIGNSTRYCVGMVWSI,inactive
21,WWLLSLP,0.196 ± 0.26
22,WWVNL,0.247 ± 0.3
23,WWYSDMWMVSC,2.34 ± 0.46
24,WYIVGSFTGITLVVNLALNL,inactive
25,WYIVPITVNFQG,6.54 ± 0.049
26,WYLWHMLICLVTFRMNSFFR,0.707 ± 1

row,Substance,amyloid nucleation score
1,YAMNPHTDGPCTFNWVFYGK,8.094 ± 0.056
2,YASSYNKRCNNVMNVVW,-0.299 ± 0.25
3,YASTSNILLSIS,0.546 ± 0.2
4,YAYFVSWGVFVIENVFPYKY,-1.27 ± 0.66
5,YCAFTSLRIIRISNIFIRHE,inactive
6,YCCDDDGKFAWNECWDDTAR,0.102 ± 0.21
7,YCEYASVVLFGTELCFAWVY,0.001 ± 0.73
8,YCGKR,1.12 ± 0.58
9,YCGMCVYLISYMATFNCYYY,3.54 ± 0.1
10,YCKLDLPVTIEVKCSRGRMS,5.17 ± 0.08
11,YCKLDVAVFCVQYNMSMSEQ,5.46 ± 0.079
12,YCQSSWMSSFSTEFHKARLN,0.43 ± 0.39
13,YCSSVEVGVYLNVLICFSGL,3.18 ± 0.062
14,YCVSFLRSSLP,3.39 ± 0.12
15,YCWFFMLWEYTCWLVF,0.17 ± 0.28
16,YCYYYVNTCVV,2.07 ± 0.53
17,YDASGLWMCKERAEGFMRNV,-0.273 ± 0.95
18,YDDTTMYRFWLHFKM,0.638 ± 0.3
19,YDKFPTLVMGAKRSGWG,-0.761 ± 0.78
20,YDLGLIVSYDLLSVKEVPDR,1.48 ± 0.55
21,YDLLSLGDTTCRHSEILNRP,0.924 ± 0.63
22,YDLNYKDCSLRSVSSVGLQC,0.099 ± 0.19
23,YDNIWYKVNRAYEIRWLVGG,-0.383 ± 1.7
24,YDQNWMRTIDRVNH,-0.292 ± 0.5
25,YDRNCFGAPFNSVVQVTGKS,-0.94 ± 1
26,YDRNRSMPSLLRP,inactive

row,Substance,amyloid nucleation score
1,YDSSLMGVWMCGCIARWEVS,-1.93 ± 2.7
2,YDVVRSGFLGVDNITRLMPR,-0.27 ± 1.2
3,YDYLDALHLTEASKSGCLVN,0.423 ± 0.69
4,YDYSLCANIMNRYHAK,0.333 ± 0.29
5,YEMSY,-1.38 ± 2.4
6,YENSFGGHYSDESNTRRWEF,1.44 ± 0.36
7,YEQVNIRNG,0.138 ± 0.87
8,YERIPFLDSGTYGIYDWTAR,-0.372 ± 0.3
9,YFDKKLGLS,inactive
10,YFGVFCQRMMVTALSPKNPT,-0.369 ± 0.32
11,YFKSWTLNMCVGIKNK,4.66 ± 0.056
12,YFLICSLWPYVLPYCVCRFV,-0.728 ± 0.5
13,YFLLLRFY,0.094 ± 0.44
14,YFLRHCCPD,-1.8 ± 2.4
15,YFVGGF,-0.859 ± 0.91
16,YFYIPFNEMNRWTYCCIRWW,-0.04 ± 0.36
17,YGEHMLVDRCMRWVSSFYRG,1.62 ± 0.3
18,YGFVAYSDIVKAFGVIKSTG,-0.315 ± 0.31
19,YGGNL,0.169 ± 0.52
20,YGLPFHVPACCAYLVVCKGR,-0.018 ± 0.54
21,YGNFKVGFFVIRAWNWLNLI,0.319 ± 1.2
22,YGRVTDYCKCCVILRLSYWV,-0.993 ± 0.77
23,YGSSAL,-0.419 ± 0.23
24,YGTGMCHELCIDVTSWVMWM,-1.57 ± 0.79
25,YGVNHRMYSKWHSVGAWMCR,1.21 ± 0.66
